The target of the test is RpL4 (as it stands in the Acl4·RpL4 complex) (not stated (S. cerevisiae or C. thermophilum cDNA cloned)). The experiment in a line: SEC; Superdex 200 10/300 GL, 20 mM TRIS pH 8.0, 100 mM NaCl, 5 mM DTT; pre-incubation 1 h at 4 °C; fractions on SDS-PAGE, Coomassie. In general terms: In gel filtration, larger molecules generally elute earlier.

“Acl4 (untagged, purified) (natural protein)” registered a stoichiometry N (Acl4 per RpL4) of 2.
